Series [1] addresses T1, human SEP (Homo sapiens, UniProt Q495T6).
T1 construct: The full length human SEP clone was termed MSSE82; made in house; host or cells: CHO cells transfected with plasmid MSSE82; dialysed culture medium used as enzyme
T1 sequence (Q495T6 75-779 limits assumed): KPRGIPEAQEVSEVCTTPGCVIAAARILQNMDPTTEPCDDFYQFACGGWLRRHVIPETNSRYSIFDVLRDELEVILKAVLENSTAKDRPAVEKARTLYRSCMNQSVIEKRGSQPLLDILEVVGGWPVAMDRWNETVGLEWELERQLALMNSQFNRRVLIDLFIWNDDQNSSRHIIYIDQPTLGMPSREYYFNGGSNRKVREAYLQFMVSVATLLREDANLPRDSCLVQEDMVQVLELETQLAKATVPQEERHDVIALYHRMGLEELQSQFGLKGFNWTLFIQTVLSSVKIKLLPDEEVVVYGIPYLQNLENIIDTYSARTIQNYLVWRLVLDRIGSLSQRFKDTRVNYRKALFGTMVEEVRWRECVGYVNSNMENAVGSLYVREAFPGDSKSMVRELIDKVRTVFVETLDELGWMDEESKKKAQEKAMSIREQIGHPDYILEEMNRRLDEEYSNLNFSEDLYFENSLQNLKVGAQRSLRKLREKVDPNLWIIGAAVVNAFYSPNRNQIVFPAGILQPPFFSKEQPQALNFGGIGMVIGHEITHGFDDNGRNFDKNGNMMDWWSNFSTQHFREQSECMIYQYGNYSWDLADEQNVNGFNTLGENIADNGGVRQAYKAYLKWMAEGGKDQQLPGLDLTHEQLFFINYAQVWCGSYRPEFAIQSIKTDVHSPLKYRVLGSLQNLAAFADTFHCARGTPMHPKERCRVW
The series can be described thus: human SEP activity, sensitivity to inhibitors. Format: biochemical. The procedure: The enzymatic (proteolytic) activity of human SEP protein can be measured in an assay involving, for example, mixing a sample of the human SEP enzyme with a substrate peptide in a buffer solution (for example 50 mM HEPES; pH 7.4), incubating the mixture for a period of time (such as 1-3 hours) enough for human SEP to act to cleave a measurable portion of the peptide substrate to a product at a temperature suitable for SEP activity (typically 30-37° C.).
The effect of candidate human SEP inhibitor compounds or control test compounds such as phosphoramidon and thiorphan that may alter the activity of human SEP can be measured in this type of assay by including them in the initial mixture at a range of suitable test concentrations, typically 0.1 nM to 50 μM.
To determine the IC50 of SEP inhibitors (SEPi; for example, phosphoramidon), multiple SEP assays are performed as described above with a range of test concentrations of inhibitor included in the 50 μl of DMSO solution (made by appropriate dilution of a 10 mM 100% DMSO stock of inhibitor with 4% DMSO/50 mM HEPES pH7.4.). Using a suitable standard graph fitting computer program, a sigmoidal dose response curve is fitted to a plot of log inhibitor concentration versus MaxV (or % inhibition or % activity). The IC50 is calculated as the inhibitor concentration causing 50% maximal inhibition. […]

Series [2] addresses T2, mouse SEP (Mus musculus, UniProt Q9JLI3).
T2 sequence (Q9JLI3 1-765): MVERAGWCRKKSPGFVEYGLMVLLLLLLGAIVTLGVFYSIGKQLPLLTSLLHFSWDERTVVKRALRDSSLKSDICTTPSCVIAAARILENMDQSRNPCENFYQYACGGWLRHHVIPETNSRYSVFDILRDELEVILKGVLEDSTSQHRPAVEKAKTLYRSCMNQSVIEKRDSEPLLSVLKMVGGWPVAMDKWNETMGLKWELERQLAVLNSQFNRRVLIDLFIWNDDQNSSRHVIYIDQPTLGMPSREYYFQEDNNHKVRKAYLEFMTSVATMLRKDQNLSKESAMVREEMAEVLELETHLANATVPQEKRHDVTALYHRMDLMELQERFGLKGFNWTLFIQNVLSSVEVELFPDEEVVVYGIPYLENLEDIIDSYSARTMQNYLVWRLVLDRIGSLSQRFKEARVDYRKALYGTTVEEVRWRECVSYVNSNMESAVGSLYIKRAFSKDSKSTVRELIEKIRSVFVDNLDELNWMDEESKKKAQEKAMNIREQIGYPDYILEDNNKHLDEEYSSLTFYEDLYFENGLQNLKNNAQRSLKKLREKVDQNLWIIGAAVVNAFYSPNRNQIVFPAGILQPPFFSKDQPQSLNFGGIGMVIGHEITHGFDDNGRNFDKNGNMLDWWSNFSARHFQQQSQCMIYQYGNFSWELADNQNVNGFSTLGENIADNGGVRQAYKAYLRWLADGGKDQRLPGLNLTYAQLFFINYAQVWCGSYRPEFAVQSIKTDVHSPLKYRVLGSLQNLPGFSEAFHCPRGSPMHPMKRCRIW
The settings on record: cited from earlier work.

The target of series [3] is T3, Recombinant human NEP enzyme (Homo sapiens, UniProt P08473).
T3 construct: made in house; host or cells: Pichia pastoris
T3 sequence (P08473 whole entry): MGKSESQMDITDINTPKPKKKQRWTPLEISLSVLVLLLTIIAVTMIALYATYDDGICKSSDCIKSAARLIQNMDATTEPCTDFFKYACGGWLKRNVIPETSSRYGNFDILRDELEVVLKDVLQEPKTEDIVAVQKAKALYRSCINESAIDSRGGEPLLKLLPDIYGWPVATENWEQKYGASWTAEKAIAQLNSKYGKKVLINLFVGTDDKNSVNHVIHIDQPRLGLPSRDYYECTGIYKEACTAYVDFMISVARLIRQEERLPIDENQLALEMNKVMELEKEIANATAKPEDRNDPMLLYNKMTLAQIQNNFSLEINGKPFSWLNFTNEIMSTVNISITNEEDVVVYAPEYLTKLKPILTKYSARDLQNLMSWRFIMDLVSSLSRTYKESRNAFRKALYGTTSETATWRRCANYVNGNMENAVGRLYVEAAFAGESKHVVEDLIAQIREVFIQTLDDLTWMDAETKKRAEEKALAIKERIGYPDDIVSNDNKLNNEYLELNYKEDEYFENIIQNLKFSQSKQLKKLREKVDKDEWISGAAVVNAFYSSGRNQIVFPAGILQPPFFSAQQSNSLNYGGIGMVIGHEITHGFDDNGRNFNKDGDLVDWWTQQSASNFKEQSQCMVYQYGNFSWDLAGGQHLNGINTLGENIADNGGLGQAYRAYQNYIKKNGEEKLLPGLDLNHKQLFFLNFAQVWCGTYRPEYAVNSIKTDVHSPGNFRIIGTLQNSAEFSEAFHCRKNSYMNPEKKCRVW
The series can be described thus: NEP FRET assay (384 well, homogeneous). Format: biochemical. The conditions noted are these: steady state kinetics of NEP enzyme with the peptide substrate. The procedure:
All assays were conducted in 384 well black, flat bottom plates, purchased from Matrix Technologies Ltd. (Cheshire, UK).
Compounds for screening were supplied as singles at 40 μM in 1% DMSO to achieve a final screening concentration of 10 μM.
The peptide substrate (Rhodamine green-Gly-Gly-dPhe-Leu-Arg-Arg-Val-Cys(QSY™7)-βAla-NH2) (SEQ ID NO: 8) was made as described above and labelled with fluorophores purchased from Molecular Probes, Inc. All other reagents were purchased from Sigma/Aldrich (Poole, Dorset, UK).
Recombinant human NEP enzyme was expressed using Pichia pastoris and purified to homogeneity using a three-step purification procedure.
All assays were performed in 50 mM Hepes buffer pH 8, 0.1% v/v pluronic-F127 and 1% v/v protease inhibitor cocktail (antipain, aprotinin, leupeptin, pepstatin A). 10 μl of compound in 1% DMSO was added to each well, followed by 20 μl of recombinant enzyme (10 nM final concentration). The reaction was initiated by the addition of 10 μl of substrate (1 μM final concentration) and plates were incubated at 25° C. for one hour. Termination of the reaction was achieved by the addition of 20 μl of Stop (excess of a known inhibitor) to a concentration of 10 μM in the well. Plates were counted using Tecan Ultra (485 nm excitation, 535 nm emission; Tecan Austria, Salzburg, Austria). […]

The target of series [4] is T4, Rhodamine green-Gly-Gly-dPhe-Leu-Arg-Arg-Val-Cys(QSY7)-betaAla-NH2.
T4 chain: GGFLRRVCA

[ ]: non-standard residue; d: D form. QSY7 = QSY-7 (maleimide) on Cys; βAla = NCCC(=O)O

Regarding `CC(C)C[C@H](NP(=O)(O)O[C@@H]1O[C@@H](C)[C@H](O)[C@@H](O)[C@H]1O)C(=O)N[C@@H](Cc1c[nH]c2ccccc12)C(=O)O` [phosphoramidon], the “sensitivity of human SEP to inhibitor” value in series [1] was “sensitive”. In addition, in series [2], the “sensitivity of mouse SEP to inhibitor” value was “sensitive”.
As for `O=C(O)CNC(=O)C(CS)Cc1ccccc1` (centres unmarked) [thiorphan], the “sensitivity of human SEP to inhibitor” value in series [1] was “sensitive”. Further, the “sensitivity of mouse SEP to inhibitor” value in series [2] was “sensitive”.
For “Rhodamine green-Gly-Gly-dPhe-Leu-Arg-Arg-Val-Cys(QSY™7)-βAla-NH2 ({Rhodamine green}-GG[dF]LRRVC(QSY7)[βAla]-NH2) [CP4]”, in series [3], the Kcat was 0.083 s⁻¹. Moreover, in series [3] (50 mM Hepes pH 8, 25° C.), the Km – broadly, the concentration of substrate that gives half-maximal velocity – is 8 µM.

B1: Recombinant human NEP enzyme (neutral endopeptidase, neprilysin, EC 3.4.24.11) (protein)
chain: DDGICKSSDCIKSAARLIQNMDATTEPCTDFFKYACGGWLKRNVIPETSSRYGNFDILRDELEVVLKDVLQEPKTEDIVAVQKAKALYRSCINESAIDSRGGEPLLKLLPDIYGWPVATENWEQKYGASWTAEKAIAQLNSKYGKKVLINLFVGTDDKNSVNHVIHIDQPRLGLPSRDYYECTGIYKEACTAYVDFMISVARLIRQEERLPIDENQLALEMNKVMELEKEIANATAKPEDRNDPMLLYNKMTLAQIQNNFSLEINGKPFSWLNFTNEIMSTVNISITNEEDVVVYAPEYLTKLKPILTKYSARDLQNLMSWRFIMDLVSSLSRTYKESRNAFRKALYGTTSETATWRRCANYVNGNMENAVGRLYVEAAFAGESKHVVEDLIAQIREVFIQTLDDLTWMDAETKKRAEEKALAIKERIGYPDDIVSNDNKLNNEYLELNYKEDEYFENIIQNLKFSQSKQLKKLREKVDKDEWISGAAVVNAFYSSGRNQIVFPAGILQPPFFSAQQSNSLNYGGIGMVIGHEITHGFDDNGRNFNKDGDLVDWWTQQSASNFKEQSQCMVYQYGNFSWDLAGGQHLNGINTLGENIADNGGLGQAYRAYQNYIKKNGEEKLLPGLDLNHKQLFFLNFAQVWCGTYRPEYAVNSIKTDVHSPGNFRIIGTLQNSAEFSEAFHCRKNSYMNPEKKCRVW
Regarding B1, in series [4], the Kcat stood at 0.083 s⁻¹; the Kcat/Km is given as 10,500 M^-1 S^-1; the Km was 8 µM; the “cleavage of the FRET substrate, monitored by fluorescence” value was “CP4 is cleaved by endopeptidases NEP or SEP, creating the cleavage product Rhodamine green-Gly-Gly-dPhe-Leu-Arg-Arg-OH”.

B2: human soluble secreted endopeptidase (human SEP), recombinant (protein)
chain: RKPRGIPEAQEVSEVCTTPGCVIAAARILQNMDPTTEPCDDFYQFACGGWLRRHVIPETNSRYSIFDVLRDELEVILKAVLENSTAKDRPAVEKARTLYRSCMNQSVIEKRGSQPLLDILEVVGGWPVAMDRWNETVGLEWELERQLALMNSQFNRRVLIDLFIWNDDQNSSRHIIYIDQPTLGMPSREYYFNGGSNRKVREAYLQFMVSVATLLREDANLPRDSCLVQEDMVQVLELETQLAKATVPQEERHDVIALYHRMGLEELQSQFGLKGFNWTLFIQTVLSSVKIKLLPDEEVVVYGIPYLQNLENIIDTYSARTIQNYLVWRLVLDRIGSLSQRFKDTRVNYRKALFGTMVEEVRWRECVGYVNSNMENAVGSLYVREAFPGDSKSMVRELIDKVRTVFVETLDELGWMDEESKKKAQEKAMSIREQIGHPDYILEEMNRRLDEEYSNLNFSEDLYFENSLQNLKVGAQRSLRKLREKVDPNLWIIGAAVVNAFYSPNRNQIVFPAGILQPPFFSKEQPQALNFGGIGMVIGHEITHGFDDNGRNFDKNGNMMDWWSNFSTQHFREQSECMIYQYGNYSWDLADEQNVNGFNTLGENIADNGGVRQAYKAYLKWMAEGGKDQQLPGLDLTHEQLFFINYAQVWCGSYRPEFAIQSIKTDVHSPLKYRVLGSLQNLAAFADTFHCARGTPMHPKERCRVW
Turning to B2, the “cleavage of the FRET substrate, monitored by fluorescence” value in series [4] was “CP4 is cleaved by endopeptidases NEP or SEP, creating the cleavage product Rhodamine green-Gly-Gly-dPhe-Leu-Arg-Arg-OH”.

These data come from US20040014131A1, “Assay methods” (Pfizer Inc., priority 2002, published 2004).
